Tested on: Escherichia coli TOP10
Test: shrunken log2 fold change of peptide-encoding DNA abundance (4.5 h post-induction vs induction); higher = less antimicrobial activity (less host growth inhibition)
Settings: time post-induction: 4.5 h; library: site-saturation at positions 5, 18, 19, 20
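Also: peptides expressed intracellularly from a pBAD plasmid library in pooled LB shake-flask culture, induced with 0.3% L-arabinose, DNA abundance read by NGS, three biological replicates, DESeq2 with apeglm shrinkage.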

Row | Sequence | shrunken log2 fold change
1 | RRIRFRPPRLPRPRPRPDAYPRP | -0.147
2 | RRIRFRPPRLPRPRPRPDEAPRP | 0.0246
3 | RRIRFRPPRLPRPRPRPDEYPRP | -0.014
4 | RRIRFRPPRLPRPRPRPDFFPRP | -0.027
5 | RRIRFRPPRLPRPRPRPDFIPRP | -0.395
6 | RRIRFRPPRLPRPRPRPDFKPRP | -0.296
7 | RRIRFRPPRLPRPRPRPDGYPRP | 0.028
8 | RRIRFRPPRLPRPRPRPDHNPRP | -0.911
9 | RRIRFRPPRLPRPRPRPDHYPRP | -0.184
10 | RRIRFRPPRLPRPRPRPDKAPRP | -0.0262
11 | RRIRFRPPRLPRPRPRPDKLPRP | -0.505
12 | RRIRFRPPRLPRPRPRPDLNPRP | -0.321
13 | RRIRFRPPRLPRPRPRPDMIPRP | -0.241
14 | RRIRFRPPRLPRPRPRPDMYPRP | -0.00804
15 | RRIRFRPPRLPRPRPRPDNFPRP | -0.204
16 | RRIRFRPPRLPRPRPRPDPGPRP | -0.162
17 | RRIRFRPPRLPRPRPRPDPMPRP | -0.196
18 | RRIRFRPPRLPRPRPRPDQCPRP | -0.0562
19 | RRIRFRPPRLPRPRPRPDQDPRP | -0.00191
20 | RRIRFRPPRLPRPRPRPDQLPRP | 0.22
21 | RRIRFRPPRLPRPRPRPDRAPRP | 0.131
22 | RRIRFRPPRLPRPRPRPDTTPRP | 0.00968
23 | RRIRFRPPRLPRPRPRPDWSPRP | -0.214
24 | RRIRFRPPRLPRPRPRPDYKPRP | -0.492
25 | RRIRFRPPRLPRPRPRPDYWPRP | -0.142

Row | Sequence | shrunken log2 fold change
26 | RRIRFRPPRLPRPRPRPEAEPRP | 0.684
27 | RRIRFRPPRLPRPRPRPEAPPRP | 0.529
28 | RRIRFRPPRLPRPRPRPECFPRP | 0.0331
29 | RRIRFRPPRLPRPRPRPEDTPRP | 0.144
30 | RRIRFRPPRLPRPRPRPEEPPRP | 0.248
31 | RRIRFRPPRLPRPRPRPEETPRP | 0.00709
32 | RRIRFRPPRLPRPRPRPEFRPRP | -0.0593
33 | RRIRFRPPRLPRPRPRPEGAPRP | 1.05
34 | RRIRFRPPRLPRPRPRPEHTPRP | -0.213
35 | RRIRFRPPRLPRPRPRPEHWPRP | 0.0716
36 | RRIRFRPPRLPRPRPRPEIMPRP | -0.269
37 | RRIRFRPPRLPRPRPRPELVPRP | 0.616
38 | RRIRFRPPRLPRPRPRPEPCPRP | -0.111
39 | RRIRFRPPRLPRPRPRPEPFPRP | 0.108
40 | RRIRFRPPRLPRPRPRPEPHPRP | 0.258
41 | RRIRFRPPRLPRPRPRPEPNPRP | 0.256
42 | RRIRFRPPRLPRPRPRPEQHPRP | 1.53
43 | RRIRFRPPRLPRPRPRPESDPRP | 0.17
44 | RRIRFRPPRLPRPRPRPESHPRP | -0.154
45 | RRIRFRPPRLPRPRPRPETFPRP | -0.0396
46 | RRIRFRPPRLPRPRPRPETMPRP | 0.0761
47 | RRIRFRPPRLPRPRPRPEVEPRP | 0.00408
48 | RRIRFRPPRLPRPRPRPEVKPRP | -0.00444
49 | RRIRFRPPRLPRPRPRPEVSPRP | -0.149
50 | RRIRFRPPRLPRPRPRPEVWPRP | 0.273

Row | Sequence | shrunken log2 fold change
51 | RRIRFRPPRLPRPRPRPEVYPRP | 0.000414
52 | RRIRFRPPRLPRPRPRPEWGPRP | 0.186
53 | RRIRFRPPRLPRPRPRPEYIPRP | -0.0963
54 | RRIRFRPPRLPRPRPRPFDEPRP | -0.983
55 | RRIRFRPPRLPRPRPRPFDFPRP | -0.692
56 | RRIRFRPPRLPRPRPRPFDRPRP | 0.0332
57 | RRIRFRPPRLPRPRPRPFDVPRP | -0.247
58 | RRIRFRPPRLPRPRPRPFFAPRP | 0.424
59 | RRIRFRPPRLPRPRPRPFFQPRP | -0.378
60 | RRIRFRPPRLPRPRPRPFGNPRP | 0.0348
61 | RRIRFRPPRLPRPRPRPFHGPRP | 0.00193
62 | RRIRFRPPRLPRPRPRPFHVPRP | -0.546
63 | RRIRFRPPRLPRPRPRPFHYPRP | 0.0611
64 | RRIRFRPPRLPRPRPRPFLGPRP | 0.0749
65 | RRIRFRPPRLPRPRPRPFLRPRP | -0.313
66 | RRIRFRPPRLPRPRPRPFLSPRP | -0.167
67 | RRIRFRPPRLPRPRPRPFLVPRP | -0.426
68 | RRIRFRPPRLPRPRPRPFMHPRP | -0.147
69 | RRIRFRPPRLPRPRPRPFNGPRP | -0.163
70 | RRIRFRPPRLPRPRPRPFPIPRP | -0.184
71 | RRIRFRPPRLPRPRPRPFQLPRP | -0.0751
72 | RRIRFRPPRLPRPRPRPFRPPRP | -0.466
73 | RRIRFRPPRLPRPRPRPFSQPRP | -0.452
74 | RRIRFRPPRLPRPRPRPFTEPRP | -0.869
75 | RRIRFRPPRLPRPRPRPFTHPRP | -0.296

Row | Sequence | shrunken log2 fold change
76 | RRIRFRPPRLPRPRPRPFWCPRP | -0.27
77 | RRIRFRPPRLPRPRPRPFWHPRP | 0.041
78 | RRIRFRPPRLPRPRPRPFYAPRP | -0.542
79 | RRIRFRPPRLPRPRPRPFYQPRP | -0.537
80 | RRIRFRPPRLPRPRPRPFYRPRP | -0.202
81 | RRIRFRPPRLPRPRPRPFYWPRP | -0.217
82 | RRIRFRPPRLPRPRPRPGASPRP | 0.109
83 | RRIRFRPPRLPRPRPRPGCVPRP | 0.15
84 | RRIRFRPPRLPRPRPRPGDRPRP | 0.151
85 | RRIRFRPPRLPRPRPRPGECPRP | -0.228
86 | RRIRFRPPRLPRPRPRPGFPPRP | 0.098
87 | RRIRFRPPRLPRPRPRPGGMPRP | -0.0381
88 | RRIRFRPPRLPRPRPRPGGRPRP | 0.323
89 | RRIRFRPPRLPRPRPRPGICPRP | -0.0925
90 | RRIRFRPPRLPRPRPRPGINPRP | -0.288
91 | RRIRFRPPRLPRPRPRPGKFPRP | 0.138
92 | RRIRFRPPRLPRPRPRPGMIPRP | -0.224
93 | RRIRFRPPRLPRPRPRPGMMPRP | -0.216
94 | RRIRFRPPRLPRPRPRPGMPPRP | -0.0207
95 | RRIRFRPPRLPRPRPRPGNIPRP | -0.0525
96 | RRIRFRPPRLPRPRPRPGPIPRP | 0.218
97 | RRIRFRPPRLPRPRPRPGRQPRP | 0.179
98 | RRIRFRPPRLPRPRPRPGRVPRP | 0.787
99 | RRIRFRPPRLPRPRPRPGSLPRP | -0.479
100 | RRIRFRPPRLPRPRPRPGTFPRP | -0.492

Row | Sequence | shrunken log2 fold change
101 | RRIRFRPPRLPRPRPRPGTHPRP | 1.26
102 | RRIRFRPPRLPRPRPRPGVAPRP | 0.292
103 | RRIRFRPPRLPRPRPRPGWKPRP | 0.208
104 | RRIRFRPPRLPRPRPRPGWWPRP | -0.0573
105 | RRIRFRPPRLPRPRPRPGYKPRP | -0.438
106 | RRIRFRPPRLPRPRPRPGYNPRP | -0.332
107 | RRIRFRPPRLPRPRPRPGYSPRP | -0.934
108 | RRIRFRPPRLPRPRPRPHCAPRP | -0.17
109 | RRIRFRPPRLPRPRPRPHDNPRP | -0.392
110 | RRIRFRPPRLPRPRPRPHESPRP | -0.0515
111 | RRIRFRPPRLPRPRPRPHFQPRP | -0.261
112 | RRIRFRPPRLPRPRPRPHHTPRP | -0.597
113 | RRIRFRPPRLPRPRPRPHIAPRP | -0.532
114 | RRIRFRPPRLPRPRPRPHIVPRP | -0.0839
115 | RRIRFRPPRLPRPRPRPHKDPRP | -0.709
116 | RRIRFRPPRLPRPRPRPHKHPRP | -0.579
117 | RRIRFRPPRLPRPRPRPHKQPRP | -0.0759
118 | RRIRFRPPRLPRPRPRPHLDPRP | -0.275
119 | RRIRFRPPRLPRPRPRPHLPPRP | -0.0118
120 | RRIRFRPPRLPRPRPRPHMQPRP | -0.725
121 | RRIRFRPPRLPRPRPRPHPCPRP | -0.231
122 | RRIRFRPPRLPRPRPRPHPQPRP | 0.246
123 | RRIRFRPPRLPRPRPRPHQHPRP | -0.582
124 | RRIRFRPPRLPRPRPRPHQKPRP | -0.0745
125 | RRIRFRPPRLPRPRPRPHQVPRP | -0.088

Row | Sequence | shrunken log2 fold change
126 | RRIRFRPPRLPRPRPRPHRNPRP | -0.257
127 | RRIRFRPPRLPRPRPRPHSAPRP | -0.179
128 | RRIRFRPPRLPRPRPRPHSQPRP | -0.351
129 | RRIRFRPPRLPRPRPRPHTPPRP | 1.24
130 | RRIRFRPPRLPRPRPRPHYLPRP | -0.217
131 | RRIRFRPPRLPRPRPRPICDPRP | 0.0526
132 | RRIRFRPPRLPRPRPRPICEPRP | -0.0168
133 | RRIRFRPPRLPRPRPRPICIPRP | -0.399
134 | RRIRFRPPRLPRPRPRPICRPRP | -0.0837
135 | RRIRFRPPRLPRPRPRPICVPRP | -0.161
136 | RRIRFRPPRLPRPRPRPIDYPRP | -0.155
137 | RRIRFRPPRLPRPRPRPIEEPRP | 0.0565
138 | RRIRFRPPRLPRPRPRPIFNPRP | -0.0984
139 | RRIRFRPPRLPRPRPRPIHMPRP | -0.491
140 | RRIRFRPPRLPRPRPRPIILPRP | -1.74
141 | RRIRFRPPRLPRPRPRPIIMPRP | -0.799
142 | RRIRFRPPRLPRPRPRPIIRPRP | -0.014
143 | RRIRFRPPRLPRPRPRPIKRPRP | 0.988
144 | RRIRFRPPRLPRPRPRPILQPRP | -0.0746
145 | RRIRFRPPRLPRPRPRPILYPRP | -0.7
146 | RRIRFRPPRLPRPRPRPINHPRP | -0.511
147 | RRIRFRPPRLPRPRPRPINWPRP | -0.113
148 | RRIRFRPPRLPRPRPRPINYPRP | -0.0562
149 | RRIRFRPPRLPRPRPRPIPIPRP | -0.648
150 | RRIRFRPPRLPRPRPRPIPMPRP | -0.428

Source: the supplement of paper PMC9112550, “Optimization of the antimicrobial peptide Bac7 by deep mutational scanning” (BMC Biology, 2022)
